In US20150353628A1 (published 2015):

B1: murine m1B7 antibody (antibody, V domains shown)
VH: QVQLQQPGSELVRPGASVKLSCKASGYKFTSYWMHWVKQRPGQGLEWIGNIFPGSGSTNYDEKFNSKATLTVDTSSNTAYMQLSSLTSEDSAVYYCTRWLSGAYFDYWGQGTTLTVSS
VL: QIVLTQSPALMSASPGEKVTMTCSASSSVSFMYWYQQKPRSSPKPWIYLTSNLPSGVPARFSGSGSGTSYSLTISSMEAEDAATYYCQQWSSHPPTFGSGTKLEIK
notes: also called parental murine 1B7 antibody; mouse 1B7
B2: chimeric 1B7 antibody (antibody, V domains shown)
VH: B1 VH
VL: B1 VL
notes: also called ch1B7
B3: murine m11E6 antibody (antibody, V domains shown)
VH: EVKVVESGGGLVQPGGSLRLSCTTSGFTFTDYYVSWVRQPPGKALEWLGFIRNKVNGYTTEFSSSVKGRFTISRDNSQSILYLQMNTLRVEDSATYYCARVSYYGRGWYFDYWGQGTTLTVSS
VL: DIVMTQSTSSLSASLGDRVTISCRASQDIDNYLSWFQQKPDGTVKLLIYYTSRLHSGVPSRFSGSGSGTDYSLTISSLDQEDIATYFCQQGNTFPWTFGGGTKLEIK
notes: also called parental murine 11E6 antibody; mouse 11E6
B4: chimeric 11E6 antibody (antibody, V domains shown)
VH: B3 VH
VL: B3 VL
notes: also called ch11E6

Tests used:
[1] = target: T1, pertussis toxin protein (Bordetella pertussis, UniProt P04977 35-269; P04978 28-226; P04979 29-227; P0A3R5 43-152; P04981 35-133); experiment: competition ELISA
T1 construct: also called PTx; PT

[2] = target: T1, pertussis toxin protein; experiment: pertussis toxin competition assay (ELISA read-out)
[3] = target: T1, pertussis toxin protein; experiment: ELISA, PTx coated, anti-mouse-HRP secondary
From the text: Specifically, the pertussis toxin protein was used for coating while anti-mouse-HRP or anti-human Fc-HRP were used as secondary antibodies. TMB(3,3′,5,5′-Tetramethylbenzidine) was used as substrate for the assay.

Binder | Kd [1] [nM] | Kd [2] [nM] | EC50 [3] [nM]
B1 | 0.4 | 0.15 | 0.19
B2 | 0.5 | – | –
B3 | 5 | – | 2.7
B4 | 5 | – | –
